Test [1] addresses T1, human Fn14 Subdomain 2 peptide (AA51-70), biotinylated (human, added C-terminal Lys carries Ahx-biotin; C-terminal amide).
T1 peptide: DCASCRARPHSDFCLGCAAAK
In words: biolayer interferometry (ForteBio Octet); biotinylated peptide on streptavidin biosensor, response at 120 s of association. The method, then:
(§1) A ForteBio Octet Qke instrument (ForteBio) was used to measure the ability of purified antibodies to bind Fn14 peptides. The assays were performed at 30° C. in 96-well half area plates (Grenier, cat# 675076), with agitation set to 1000 rpm, in kinetic buffer (provided in the assay kit) to minimize nonspecific interactions. Biosensor tips were equilibrated in kinetic buffer for 600 s prior to use. Soluble biotinylated peptides (20 μg/ml, Subdomain 1 (AA30-50): […]-[K-Ahx-biotin]-amide (SEQ ID NO: 182) and Subdomain 2 (AA51-70): […]-[K-Ahx-biotin]-amide (SEQ ID NO: 183) synthesized by 21′ Century Biochemicals) in kinetic buffer were immobilized on streptavidin-coated biosensors (ForteBio, cat# 18-5020) for 300 seconds. […] Purified antibodies (20 μg/m1) were allowed to bind the immobilized peptides. Association was measured for 300 seconds, using the high sensitivity kinetics setting. To characterize the binding properties of the antibody candidates, the response (nm) at t =120 seconds from the start of the association step was recorded. All values were compared to a control sample (isotype antibody).
(In general: BLI is a label-free optical method that tracks binding on a fibre tip over time.)

The target in test [2] is T2, human Fn14 Subdomain 1 peptide (AA30-50), biotinylated (human, added C-terminal Lys carries Ahx-biotin; C-terminal amide).
T2 peptide: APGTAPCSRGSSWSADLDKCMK
As to the kind of experiment: biolayer interferometry (ForteBio Octet); biotinylated peptide on streptavidin biosensor, antibody in solution, response at 120 s of association. The method, then:
as §1

Test [3] addresses T3, human Fn14 (full length) on cells (human, UniProt Q9NP84 28-129).
T3 sequence: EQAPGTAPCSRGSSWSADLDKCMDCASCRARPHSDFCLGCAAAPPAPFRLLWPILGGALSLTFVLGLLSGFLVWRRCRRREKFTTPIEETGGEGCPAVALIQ
As to the kind of experiment: cell-based or functional assay.

In test [4] the target is T4, cynomolgus macaque Fn14-GST (cynomolgus macaque (Macaca fascicularis)).
T4 construct: Used from culture supernatant, captured by anti-GST; also called cyno Fn14-GST; CynoFn14
In words: SPR Biacore T200; cyno Fn14-GST captured by anti-GST, Fab analyte; 1:1 fit. The method, then:
(§2) In order to kinetically analyze the binding activity of anti-Fn14 mouse antibodies 41c, R35B9, and CRCBT-06-002 to recombinant human and cynomolgus macaque Fn14 proteins, the binding activity was measured by surface plasmon resonance method (SPR). Antibodies were generated as described herein. All of the following procedures were carried out using a Biacore T200 (GE Healthcare Bio-Sciences). To determine antibody affinity to human Fn14, recombinant human His-SUMO-Fn14 was immobilized on a CMS sensor chip (GE Healthcare Bio-Sciences) by amine coupling chemistry. In particular, the kinetic assay was carried out by immobilizing on the chip approximately 20-30 RU of recombinant protein, in order to achieve a low protein immobilization level. To determine antibody affinity to cynomolgus macaque Fn14, polyclonal anti-GST antibodies were immobilized on a CMS sensor chip (GE Healthcare Bio-Sciences) by amine coupling chemistry. In particular, after immobilizing approximately 1500 RU of anti-GST capture antibody onto the chip, cynomolgus macaque GST-Fn14 in culture supernatant was allowed to run for 5 minutes at a flow rate of 30 μL/min in order to achieve a low capture level of approximately 20 RU. Thereafter, antibody Fab fragments, serially diluted from a high concentration, were allowed to run at a flow rate of 30 μL/min onto the chip for 300 seconds. The dissociation time was 1800 seconds and the binding curves were measured at 25° C. Regeneration was performed with 10 mM glycine pH 1.5 for 30 seconds. The raw data were double referenced by subtraction of the signals from a reference flow cell without immobilized ligand and a buffer blank.
(§3) A sensorgram corresponding to each concentration was obtained (see FIG. 5). Analysis was carried out using a 1:1 Langmuir fit model using the analysis software attached to the apparatus, Biacore T200 Evaluation software (Biacore), thereby calculating an association rate constant ka [M-1s-1] and a dissociation rate constant kd [s-1] for the recombinant Fn14 proteins. […] Cross-reactivity of anti-Fn14 mouse antibodies to recombinant mouse GST-Fn14 protein was measured as described above.
(In general: Surface plasmon resonance follows binding to a sensor surface in real time, without labels.)

Test [5] deals with T4, cynomolgus macaque Fn14-GST. In words: SPR Biacore T200; cyno Fn14-GST captured by anti-GST, Fab analyte; average of two runs. The method, then:
(§4) In order to kinetically analyze the binding activity of anti-Fn14 mouse antibodies 41c, R35B9, and CRCBT-06-002 to recombinant human and cynomolgus macaque Fn14 proteins, the binding activity was measured by surface plasmon resonance method (SPR). Antibodies were generated as described herein. All of the following procedures were carried out using a Biacore T200 (GE Healthcare Bio-Sciences). To determine antibody affinity to human Fn14, recombinant human His-SUMO-Fn14 was immobilized on a CMS sensor chip (GE Healthcare Bio-Sciences) by amine coupling chemistry. In particular, the kinetic assay was carried out by immobilizing on the chip approximately 20-30 RU of recombinant protein, in order to achieve a low protein immobilization level. To determine antibody affinity to cynomolgus macaque Fn14, polyclonal anti-GST antibodies were immobilized on a CMS sensor chip (GE Healthcare Bio-Sciences) by amine coupling chemistry. […] The dissociation time was 1800 seconds and the binding curves were measured at 25° C. […]
(§5) A sensorgram corresponding to each concentration was obtained (see FIG. 5). […] Cross-reactivity of anti-Fn14 mouse antibodies to recombinant mouse GST-Fn14 protein was measured as described above.

Another test concerns the target T5, mouse Fn14-GST (mouse).
T5 construct: also called mouse GST-Fn14
As to the kind of experiment: SPR (Biacore T200); mouse Fn14-GST captured by immobilized anti-GST antibody, analyte at 10 nM. The method, then:
as §4, §5

For test [6], the target named is T6, His-SUMO-huFn14 (soluble human Fn14 aa 28-75 with N-terminal 6xHis-SUMO tag) (human).
T6 construct: also called His-SUMO-Fn14; His-SUMO-hFn14
As to the kind of experiment: SPR Biacore T200; His-SUMO-huFn14 amine-coupled, Fab analyte; 1:1 fit. The method, then: as §2, §3

The target of test [7] is T6, His-SUMO-huFn14 (soluble human Fn14 aa …). As to the kind of experiment: SPR Biacore T200; His-SUMO-huFn14 amine-coupled, Fab analyte; average of two runs. The method, then:
as §4, §5

For test [8], the target named is T7, untagged human Fn14 extracellular domain (aa 28-75), SUMO-cleaved (human, UniProt Q9NP84 28-75).
T7 construct: Electron density seen for residues 32-68; also called Fn14 (crystallization)
As to the kind of experiment: co-crystal structure. The method, then:
Purified Fn14 and His-tagged 41c Fab or R35B9 Fab proteins were mixed in a 1:1 stoichiometric ratio, concentrated to 1 mg/mL and then subjected to crystallization. Initial crystallization trials were performed in a 96-well format using a nano-liter dispensing liquid handling robot (Phoenix, Art Robbins Ltd.) while mixing 0.15 μL protein with 0.15 μL precipitant from different commercially available crystallization screens (JCSG core+and JCSG core 1 screens). Over 200 crystallization conditions were tested using the sitting drop vapor diffusion method and crystallization trails were carried out at both 4° C. and 22° C. Optimization of all crystallization conditions was performed manually by both hanging drop and sitting drop methods. Crystals were obtained in various conditions containing PEG 3350 or PEG 6000 as the common precipitant and were grown over 3 days. […]
The structure had good geometry with 4 residues (0.89%) as outliers and 97.6% residues in favored region of the Ramachandran plot. Correspondingly, the structure of Fn14 -R35B9-His Fab complex was determined by molecular replacement using the phase information obtained from Fn14-41c-His Fab complex and the structure was refined to 2.3 Å with residual factors R/Rfree=20.9/23.3.

Where a chain is given by its changes, count along the chain named. Names and notes keep the numbering of the source. Values joined by “and” are separate entries in the source; they are usually repeats but may differ in a detail not shown here. Equal values may be shown once.

Consider three molecules from patent US20220289857A1 (Kyowa Kirin, published 2022).

T4 sequence (chain, as listed by the source): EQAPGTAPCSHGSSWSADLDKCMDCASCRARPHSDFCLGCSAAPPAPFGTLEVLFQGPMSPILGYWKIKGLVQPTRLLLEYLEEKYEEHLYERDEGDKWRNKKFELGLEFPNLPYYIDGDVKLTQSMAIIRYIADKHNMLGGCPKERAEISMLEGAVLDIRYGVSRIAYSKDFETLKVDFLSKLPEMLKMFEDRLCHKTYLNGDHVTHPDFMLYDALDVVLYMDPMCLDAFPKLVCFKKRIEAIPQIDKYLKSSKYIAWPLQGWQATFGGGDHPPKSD
T6 sequence (chain, as listed by the source limits assumed): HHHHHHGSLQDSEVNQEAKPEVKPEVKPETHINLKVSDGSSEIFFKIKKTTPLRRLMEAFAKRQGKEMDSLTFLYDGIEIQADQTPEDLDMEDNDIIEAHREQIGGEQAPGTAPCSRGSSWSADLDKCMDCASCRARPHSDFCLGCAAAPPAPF

B1: 41c recombinant mouse IgG1(D265A), kappa antibody (A291/A290) (antibody, V domains shown)
VH: EVQLQQSGPELVKPGASVKMSCKASGYTFTDYNMHWVKQSHGKSLEWIGYINPNNGGTNYNQKFKGKATLTVNKSSRSAYMEFRSLTSEDSAVYYCASSGWFTYWGQGTLVTVSA
VL: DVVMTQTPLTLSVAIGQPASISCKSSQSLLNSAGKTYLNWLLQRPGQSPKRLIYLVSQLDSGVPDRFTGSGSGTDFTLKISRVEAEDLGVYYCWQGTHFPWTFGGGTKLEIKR
Take B1: the binding result in [1] is on record as “no binding (tested: 20 µg/mL)”; in test [2], “binds”. Besides, in test [3], the “ICAM-1 MFI on HRMC, 250 ng/mL rhTWEAK, mAb 0.1 µg/mL” value turned out to be 13100 MFI.

B2: R35B9 Fab (enzymatic digest of the mouse IgG1 antibody) (Fab, V domains shown, not shown: a dimerising Fc or GST)
VH: B1 VH with T28I, T30Q, Y50S, N54R, G57W
VL: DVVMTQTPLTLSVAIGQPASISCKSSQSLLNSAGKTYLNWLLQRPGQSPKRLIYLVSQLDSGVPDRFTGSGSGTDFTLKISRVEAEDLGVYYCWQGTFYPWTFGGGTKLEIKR
notes: Made with the mouse IgG1 Fab and F(ab')2 preparation kit; also called R35B9 Fab LM042817
For orientation: Kd means the equilibrium constant for the complex coming apart. Low readings indicate tighter binding, high ones weaker binding. Usually koff stands for the first-order rate constant of dissociation. A lower koff goes with a long-lived complex. By kon is commonly meant the rate constant with which the complex forms. Higher therefore signals fast association. As to B2, the Kd is 0.235 nM and 0.222 nM in [4]; 0.229 nM in test [5]; 0.205 nM and 0.21 nM in test [6]; 0.208 nM in [7]. Further, the koff is 0.000342 s⁻¹ and 0.00038 s⁻¹ in test [4]; 0.00063 s⁻¹ and 0.000427 s⁻¹ in test [6]. For the same molecule, the kon is 1.46e+06 M⁻¹ s⁻¹ and 1.71e+06 M⁻¹ s⁻¹ in [4]; 3.07e+06 M⁻¹ s⁻¹ and 2.03e+06 M⁻¹ s⁻¹ in test [6]. Also, the binding result with mouse Fn14-GST is reported as “binds”.

B3: R35B9-His Fab (recombinant, bacterial, for crystallization) (Fab, V domains shown)
VH: B1 VH with T28I, T30Q, Y50S, N54R, G57W
VL: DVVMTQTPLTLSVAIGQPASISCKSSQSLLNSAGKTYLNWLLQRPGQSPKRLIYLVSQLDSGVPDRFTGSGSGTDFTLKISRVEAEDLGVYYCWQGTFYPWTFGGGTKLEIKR
notes: also called R35B9 Fab-His
Turning to B3, the binding result in test [8] is “binds”.
